In paper PMC3143821 (Molecular cell, 2011):

B1: TRBP (natural protein, human, UniProt Q15633 1-366, looked up)
chain: MSEEEQGSGTTTGCGLPSIEQMLAANPGKTPISLLQEYGTRIGKTPVYDLLKAEGQAHQPNFTFRVTVGDTSCTGQGPSKKAAKHKAAEVALKHLKGGSMLEPALEDSSSFSPLDSSLPEDIPVFTAAAAATPVPSVVLTRSPPMELQPPVSPQQSECNPVGALQELVVQKGWRLPEYTVTQESGPAHRKEFTMTCRVERFIEIGSGTSKKLAKRNAAAKMLLRVHTVPLDARDGNEVEPDDDHFSIGVGSRLDGLRNRGPGCTWDSLRNSVGEKILSLRSCSLGSLGALGPACCRVLSELSEEQAFHVSYLDIEELSLSGLCQCLVELSTQPATVCHGSATTREAARGEAARRALQYLKIMAGSK
B2: Argonaute2 (Ago2) (enzyme)
chain: not shown
B3: PACT (natural protein, human, UniProt O75569 1-313, looked up)
chain: MSQSRHRAEAPPLEREDSGTFSLGKMITAKPGKTPIQVLHEYGMKTKNIPVYECERSDVQIHVPTFTFRVTVGDITCTGEGTSKKLAKHRAAEAAINILKANASICFAVPDPLMPDPSKQPKNQLNPIGSLQELAIHHGWRLPEYTLSQEGGPAHKREYTTICRLESFMETGKGASKKQAKRNAAEKFLAKFSNISPENHISLTNVVGHSLGCTWHSLRNSPGEKINLLKRSLLSIPNTDYIQLLSEIAKEQGFNITYLDIDELSANGQYQCLAELSTSPITVCHGSGISCGNAQSDAAHNALQYLKIIAERK

Each binder was assayed against human Dicer (human, UniProt Q9UPY3 1-1922) (assay: in vitro reconstitution of the complex).
Sequence of human Dicer (Q9UPY3 whole entry): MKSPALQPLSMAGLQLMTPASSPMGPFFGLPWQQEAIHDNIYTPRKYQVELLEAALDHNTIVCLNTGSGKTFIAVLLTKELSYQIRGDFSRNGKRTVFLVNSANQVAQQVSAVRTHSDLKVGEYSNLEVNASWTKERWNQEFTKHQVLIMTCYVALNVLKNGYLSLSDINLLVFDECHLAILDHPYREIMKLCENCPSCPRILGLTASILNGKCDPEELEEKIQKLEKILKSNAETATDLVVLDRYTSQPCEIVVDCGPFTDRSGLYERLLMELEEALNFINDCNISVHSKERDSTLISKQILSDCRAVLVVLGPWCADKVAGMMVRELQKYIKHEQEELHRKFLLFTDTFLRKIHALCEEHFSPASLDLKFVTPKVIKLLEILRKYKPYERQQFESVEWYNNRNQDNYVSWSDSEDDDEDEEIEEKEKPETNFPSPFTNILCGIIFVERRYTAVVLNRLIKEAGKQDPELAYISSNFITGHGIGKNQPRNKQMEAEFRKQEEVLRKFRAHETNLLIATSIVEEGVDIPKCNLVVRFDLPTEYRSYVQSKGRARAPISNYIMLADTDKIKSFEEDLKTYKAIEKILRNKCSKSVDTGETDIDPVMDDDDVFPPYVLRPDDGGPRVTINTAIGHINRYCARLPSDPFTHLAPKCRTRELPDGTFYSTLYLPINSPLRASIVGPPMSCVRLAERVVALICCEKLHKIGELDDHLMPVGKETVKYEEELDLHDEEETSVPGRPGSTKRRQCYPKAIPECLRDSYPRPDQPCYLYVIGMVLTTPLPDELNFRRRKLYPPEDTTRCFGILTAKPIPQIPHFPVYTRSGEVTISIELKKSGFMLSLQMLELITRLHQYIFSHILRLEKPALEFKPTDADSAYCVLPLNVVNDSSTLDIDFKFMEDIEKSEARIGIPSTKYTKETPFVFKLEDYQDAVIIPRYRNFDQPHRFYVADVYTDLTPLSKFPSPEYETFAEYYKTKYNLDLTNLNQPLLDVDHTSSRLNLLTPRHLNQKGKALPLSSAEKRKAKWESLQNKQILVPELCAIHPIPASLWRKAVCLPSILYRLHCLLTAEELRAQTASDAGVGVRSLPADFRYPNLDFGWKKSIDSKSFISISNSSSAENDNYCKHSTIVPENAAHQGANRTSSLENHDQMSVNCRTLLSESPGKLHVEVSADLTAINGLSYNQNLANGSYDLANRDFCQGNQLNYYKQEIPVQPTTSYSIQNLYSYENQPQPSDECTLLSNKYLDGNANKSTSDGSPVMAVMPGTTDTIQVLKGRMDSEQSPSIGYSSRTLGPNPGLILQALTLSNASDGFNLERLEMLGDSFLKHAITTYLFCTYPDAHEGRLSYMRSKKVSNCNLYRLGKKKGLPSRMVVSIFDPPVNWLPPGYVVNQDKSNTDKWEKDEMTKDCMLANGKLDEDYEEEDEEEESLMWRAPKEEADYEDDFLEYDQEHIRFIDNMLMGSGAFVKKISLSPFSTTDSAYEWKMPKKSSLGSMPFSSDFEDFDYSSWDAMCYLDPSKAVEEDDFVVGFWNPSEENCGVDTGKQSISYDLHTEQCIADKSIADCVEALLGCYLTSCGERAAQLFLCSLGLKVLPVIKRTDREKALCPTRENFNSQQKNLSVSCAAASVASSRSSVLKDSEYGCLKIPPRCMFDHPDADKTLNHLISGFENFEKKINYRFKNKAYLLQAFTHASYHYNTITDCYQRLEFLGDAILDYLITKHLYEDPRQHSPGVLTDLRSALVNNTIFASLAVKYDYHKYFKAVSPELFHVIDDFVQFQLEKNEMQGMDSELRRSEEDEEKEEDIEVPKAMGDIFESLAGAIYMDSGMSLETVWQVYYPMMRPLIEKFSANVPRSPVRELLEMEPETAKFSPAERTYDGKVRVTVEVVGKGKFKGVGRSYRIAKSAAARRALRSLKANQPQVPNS

Binding result, binds:
B1, B2, B3
